Self-cleavage data for 167 variants are collected here from the RNAGym collection of RNA variant scans (doi:10.7554/elife.90254).

B1: LINE1-full (parent)
chain: UACGUAGGUGGUUUUCCCCUGAUAGUGCUAAGGGGGCCUGGAAGUUUGGACUGGGCAGAGCUCAACACAGCGUGGCAAAGUGGCUGUGGCUAGACUGCCUCUCUGGAUUCCUCGUCACUCAGCAGGGCAUCUCUGAGAGAAAUGCC

Variants of B1 are the subject of the series. Put plainly: self-cleavage, relative activity (ratio to wild type); higher = more cleavage; in vitro, sequencing; the parent is a self-cleaving ribozyme.
For G35A A141G, the self-cleavage was found to be 1.39.
As to G35A U96C, the self-cleavage is 0.09.
Under G32A A57U stands 0.16; under G33A A117G, 1.91; under G34A A42G, 0.35.
On to G33A C76U, for which the self-cleavage amounted to 1.87.
The figure for G33U C103U is 1.15; for G35A C76U it is 2.14; for G33U A124U it is 1.84.
Under G36A U85A stands 0.04; under G36A U81A, 2.04.
The figure for G36A U81G is 1.08; for G34A G70A it is 0.11.
Regarding G32C U100C, the self-cleavage turned out to be 2.13.
Under G36C A117G stands 1.51.
For G36U A107G, the self-cleavage came out at 0.9.
Consider G33A U109C, for which the self-cleavage was 1.05.
Under G33C A69G stands 0.58.
Under G32A U73C stands 1.49; under G33U A94G, 0.15; under G36A U62G, 0.01.
The figure for G36A A59U is 0.67; for G35A U62C it is 0.03; for G35A U62A it is 0.05.
On to G35U A67G, for which the self-cleavage came out at 0.35.
The figure for G35C U132C is 1.53; for G35U A78U it is 2.1.
Under G35U U143A stands 1.56; under G36C U102C, 1.08.
Turning to G33U U87A, the self-cleavage worked out at 0.03.
For G32A A43G, the self-cleavage is 1.25.
With G32C G35A, the self-cleavage amounted to 1.16.
G33C U104A: the self-cleavage came out at 1.27.
For the variant G35A A124G, the self-cleavage was found to be 0.61.
The figure for G33C U100C is 1.63; for G33C A65G it is 0.
Under G33A U132C stands 1.47; under G34U A129G, 1.98; under G35A A77G, 1.92.
The figure for G35A A77U is 0.8; for G33C U46A it is 1.45.
For the variant G34U U96G, the self-cleavage amounted to 0.
With G35A U87A, the self-cleavage came out at 0.08.
With G36C A107G, the self-cleavage was determined as 2.05.
As to G36C U143A, the self-cleavage amounted to 0.7.
Under G36C U52A stands 0.45.
Under G33A U45A stands 0.86.
Under G32A U119C stands 1.29.
For G35U A94G, the self-cleavage came to 0.19.
Under G36A C116U stands 1.41; under G34C A140G, 1.38.
Under G35U U134C stands 1.12.
Under G36A A121G stands 1.1.
For G34U U39A, the self-cleavage came to 1.89.
Under G35A U73C stands 1.19; under G34U A65G, 0.02.
As for G32U U62C, the self-cleavage turned out to be 0.06.
The figure for G32A U96C is 0.13.
Take G33A A141G: the self-cleavage stood at 1.01.
Under G32C U108C stands 1.55; under G36A A94G, 0.34; under G35A U52A, 0.86.
On to G34C U62A, for which the self-cleavage worked out at 0.04.
For G35A G86A, the self-cleavage was found to be 0.05.
The figure for G32U U130A is 1.7; for G33C U62C it is 0.1.
The figure for G33C U91C is 0.41; for G35U A43G it is 1.93.
Regarding G35A A79U, the self-cleavage came out at 1.72.
The figure for G35A A129U is 1.62; for G34U A117G it is 2.
Turning to G35A U130C, the self-cleavage came to 0.96.
The figure for G33C A121G is 0.21.
The figure for G34C A50U is 1.81.
As to G36U U73A, the self-cleavage worked out at 0.46.
Turning to G36A U73A, the self-cleavage was 1.84.
Under G33U U134A stands 1.24; under G34U U91C, 0.51.
With G34U U91A, the self-cleavage turned out to be 0.49.
Regarding G32A U134C, the self-cleavage was determined as 1.22.
Take G34A U100C: the self-cleavage was 1.37.
Under G33A A43G stands 1.29; under G33U A142G, 0.88; under G34C A42G, 2.94.
On to G33U A117G, for which the self-cleavage came out at 1.39.
The figure for G36A A57G is 1.52.
The figure for G36A A57U is 0.12.
With G35A U45A, the self-cleavage turned out to be 1.28.
With G33A A136U, the self-cleavage was 1.69.
Under G33C U87G stands 0.22.
Under G36A U100C stands 2.05.
Under G34A A107G stands 2.74; under G36A A136G, 1.43; under G34U U73A, 2.36.
G34U U73G: the self-cleavage is 0.99.
The figure for G36A A64G is 0.13.
For the variant G32A U81G, the self-cleavage is 1.36.
With G32A U81A, the self-cleavage turned out to be 1.46.
The figure for G32C U45C is 1; for G32C G60U it is 0.02.
Under G35C A59G stands 0.19; under G35A U115A, 1.17; under G35A U115C, 1.03.
Under G32A A142G stands 1.22; under G34A A77G, 1.88.
For the variant G36A, the self-cleavage was 1.16.
The figure for G36C is 1.07; for G36U it is 1.35.
As to G36C G74U, the self-cleavage stood at 1.21.
Take G32C U115C: the self-cleavage is 1.56.
G34U A79G: the self-cleavage is 0.55.
For G35C U85C, the self-cleavage turned out to be 0.22.
In the case of G35U U87C, the self-cleavage amounted to 0.14.
In the case of G32A U143C, the self-cleavage came to 1.4.
In the case of G34U A43U, the self-cleavage worked out at 0.97.
The figure for G34U A43G is 1.06; for G32A A124G it is 0.69.
Under G32A A124U stands 0.
G34U U47C: the self-cleavage was determined as 2.18.
The figure for G33C U119C is 1.8; for G32A U52A it is 1.28; for G33U A141G it is 1.32.
As for G33U A57G, the self-cleavage was determined as 0.64.
Turning to G34A G144A, the self-cleavage amounted to 1.31.
Under G33C U96A stands 0.05; under G34U U104A, 1.53.
Under G32C A59U stands 0.78.
Under G32A A78G stands 0.47.
In the case of G34A U45C, the self-cleavage is 0.87.
Turning to G33U A43U, the self-cleavage stood at 0.54.
The figure for G33U A69G is 0.69; for G35A C95A it is 0.07; for G32U A94G it is 0.2.
Take G33U C116U: the self-cleavage is 1.17.
In the case of G33U A79G, the self-cleavage was 1.51.
Under G36A A140G stands 1.3.
Under G33C A117U stands 0.85; under G35C U119C, 1.98; under G34U A107U, 1.96.
The figure for G33A U96C is 0.12; for G33U A67U it is 0.17.
As to G34A C120U, the self-cleavage amounted to 1.64.
The figure for G34U U85G is 0.09; for G34A C95A it is 0.07; for G34C U39C it is 1.65.
For G33U U143C, the self-cleavage is 0.61.
Regarding G33U C101U, the self-cleavage came out at 1.26.
Under G33U A136G stands 1.7; under G32U U102C, 1.13.
As for G35A G105A, the self-cleavage worked out at 1.15.
The figure for G35A U134G is 0.47; for G35A U134C it is 0.92.
The figure for G33A A121G is 1.28; for G33A U91A it is 0.59.
Take G32C A78G: the self-cleavage is 0.73.
Under G33A U87C stands 0.2; under G32A U132C, 2.03; under G33A U102A, 0.64.
Under G34U U52A stands 1.22.
In the case of G33A C56U, the self-cleavage is 0.35.
Take G34U A77G: the self-cleavage was determined as 2.2.
The figure for G34A A64G is 0.12.
Consider G34A A94G, for which the self-cleavage came to 0.18.
With G36A A138G, the self-cleavage came out at 1.53.
Under G32C A141G stands 1.99; under G35U C113U, 1.09; under G36C U47A, 0.89.
